From publication PMC8372317, “Discovering protein–protein interaction stabilisers by native mass spectrometry†” (Chemical Science, 2021)
Non-standard residues stand in square brackets, D forms with d. pT = C[C@@H](OP(=O)(O)O)[C@H](N)C(=O)O

Target: T1, 14-3-3σ (UniProt P31947 1-248, partial β-mercaptoethanol capping of Cys38 (+76 Da adduct))
T1 construct: 14-3-3σ (14-3-3 protein sigma); The His-tag is TEV protease cleavable; Observed predominantly as a dimer by native MS; also called recombinant 14-3-3σ; receptor (R)
T1 sequence (looked up): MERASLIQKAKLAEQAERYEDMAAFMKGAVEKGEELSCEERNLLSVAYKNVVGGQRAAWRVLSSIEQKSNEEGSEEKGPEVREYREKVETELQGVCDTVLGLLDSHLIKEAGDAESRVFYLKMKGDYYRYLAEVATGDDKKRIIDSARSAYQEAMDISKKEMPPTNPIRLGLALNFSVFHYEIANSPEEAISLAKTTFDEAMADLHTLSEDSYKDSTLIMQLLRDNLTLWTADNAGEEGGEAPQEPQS
Experiment: native MS; 14-3-3σ 5 μM (monomer) with 25 μM phosphopeptide, no ligand (R:P:L 1:5:0); 50 mM ammonium acetate pH 6.8, 0.25% DMSO
Conditions: both partners purified

stoichiometry N: 2 peptide per 14-3-3σ dimer
B1: ERα(581–595) phosphopeptide (peptide)
peptide: Ac-KYYITGEAEGFPA[pT]V-OH
notes: estrogen receptor ERα, C-terminal fragment, residues 581-595; also called C-terminal fragment of estrogen receptor ERα; source: synthetic peptide, bought: Synpeptide Ltd (>95% purity)
